# PMC9719028 (Life Science Alliance, 2022)
# T1: DIRC2-AA (Homo sapiens, UniProt Q96SL1, L14A/L15A)
# T1 construct: gene SLC49A4; untagged DIRC2-AA in pCI-neo, N-terminal dileucine motif (E10RQPL14L15) replaced by dialanine, redirected to plasma membrane of transiently transfected COS-7 cells; FLAG-tagged form mostly present as cleaved product
# T1 sequence (Q96SL1 1-478 L14A/L15A): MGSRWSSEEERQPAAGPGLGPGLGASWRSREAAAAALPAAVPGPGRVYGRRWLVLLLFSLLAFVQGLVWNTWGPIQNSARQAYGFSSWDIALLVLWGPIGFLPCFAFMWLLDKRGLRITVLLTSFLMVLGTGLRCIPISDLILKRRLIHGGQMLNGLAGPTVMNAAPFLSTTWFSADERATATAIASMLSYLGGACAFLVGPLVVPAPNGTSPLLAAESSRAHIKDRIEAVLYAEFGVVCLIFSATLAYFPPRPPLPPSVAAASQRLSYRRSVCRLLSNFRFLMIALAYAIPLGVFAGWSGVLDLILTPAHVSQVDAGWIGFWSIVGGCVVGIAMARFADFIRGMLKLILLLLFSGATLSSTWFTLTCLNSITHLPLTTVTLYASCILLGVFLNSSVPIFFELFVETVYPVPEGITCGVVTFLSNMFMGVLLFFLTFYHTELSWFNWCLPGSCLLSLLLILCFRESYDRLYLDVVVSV
# B1: EGFP-THTR2 (Homo sapiens) (protein)
# chain: MDCYRTSLSSSWIYPTVILCLFGFFSMMRPSEPFLIPYLSGPDKNLTSAEITNEIFPVWTYSYLVLLLPVFVLTDYVRYKPVIILQGISFIITWLLLLFGQGVKTMQVVEFFYGMVTAAEVAYYAYIYSVVSPEHYQRVSGYCRSVTLAAYTAGSVLAQLLVSLANMSYFYLNVISLASVSVAFLFSLFLPMPKKSMFFHAKPSREIKKSSSVNPVLEETHEGEAPGCEEQKPTSEILSTSGKLNKGQLNSLKPSNVTVDVFVQWFQDLKECYSSKRLFYWSLWWAFATAGFNQVLNYVQILWDYKAPSQDSSIYNGAVEAIATFGGAVAAFAVGYVKVNWDLLGELALVVFSVVNAGSLFLMHYTANIWACYAGYLIFKSSYMLLITIAVFQIAVNLNVERYALVFGINTFIALVIQTIMTVIVVDQRGLNLPVSIQFLVYGSYFAVIAGIFLMRSMYITYSTKSQKDVQSPAPSENPDVSHPEEESNIIMSTKL
# B2: DIRC2-AA (Homo sapiens; L14A/L15A) (protein)
# chain: T1 sequence (Q96SL1 1-478 L14A/L15A)
# B3: EGFP-DIRC2-AA (Homo sapiens; L14A/L15A) (protein)
# chain: T1 sequence (Q96SL1 1-478 L14A/L15A)
# Columns and labels:
# DIRC2-AA = target: T1, DIRC2-AA; experiment: inhibition of specific [3H]pyridoxine uptake in transfected COS-7 cells; assay type: cell-based; details: 10 nM [3H]pyridoxine, 1 mM test compound, pH 5.0, 37 °C, 1 min
# [1] = substrate: Cc1ncc(CO)c(CO)c1O; experiment: cells, lysate or membranes; details: pH 5.0, 37 °C, 1 min, labelled compound
molecule,measurement,setting,value
Cc1ncc(CO)c(C)c1O [4-deoxypyridoxine],% inhibition at 1 mM,DIRC2-AA,only 4-deoxypyridoxine other than pyridoxine significantly inhibited the DIRC2-AA–specific uptake
B1,Km,[1]; Hanks' solution with MES,20 ± 1 µM
B2,Km,"[1]; Hanks' solution with MES (NaCl present), H+-coupled uptake",522 ± 63 µM
B3,Km,"[1]; Hanks' solution with MES (NaCl present), H+-coupled uptake, caption names it FLAG-DIRC2-AA once, text says EGFP-DIRC2-AA",476 ± 19 µM
